{
  "source": "the RNAGym collection of RNA variant scans (doi:10.1073/pnas.2313332121)",
  "parents": {"B1": {"name": "TPR 5TU (parent)", "chain": "GGAUCUUCUCGAUCUAACAAAAAAGACAAAUCUGCCACAAAGCUUGAGAGCAUCUUCGGAUGCAGAGGCGGCAGCCUUCGGUGGCGCGAUAGCGCCAACGUUCUCAACUAUGACACGCAAAACGCGUGCUCCGUUGAAUGGAGUUUAUCAUG"}},
  "note": "Variants at the floor of the assay were thinned out.",
  "data": [
    {"variants_of": "B1", "experiment": "polymerase ribozyme fitness, log enrichment relative to wild type (log ratio); higher = more active; in vitro selection for triplet polymerase activity", "how_it_was_run": "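One round of in vitro selection, in triplicate, was applied to PCR-built, transcribed mutant libraries of each subunit of a heterodimeric triplet polymerase ribozyme. The steps were annealing with a biotinylated primer, partner subunit and triplets, incubation frozen at −7 °C, gel excision of extended constructs, streptavidin-bead capture and RT-PCR. Fitness is the logarithm, base 2, of genotype enrichment over wild-type enrichment from inverse-variance-weighted replicate averages of Illumina-sequenced inputs and outputs, keeping genotypes with ≥10 input reads and ≥1 read per output.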", "values": [
      {"variant": "A52G C105A C123A G133U U144G", "polymerase ribozyme fitness (log ratio)": "≤ -4.2"},
      {"variant": "U53A C93U G140C", "polymerase ribozyme fitness (log ratio)": "≤ -4.2"},
      {"variant": "U53A A60G C96U A106U U139G", "polymerase ribozyme fitness (log ratio)": -2.41},
      {"variant": "U53A C75U", "polymerase ribozyme fitness (log ratio)": -1.34},
      {"variant": "U53G C87G G133U", "polymerase ribozyme fitness (log ratio)": "≤ -4.2"},
      {"variant": "A52G U78C", "polymerase ribozyme fitness (log ratio)": -0.764},
      {"variant": "A52G C93U G94C A97C", "polymerase ribozyme fitness (log ratio)": -3.73},
      {"variant": "U53G A115C G143A", "polymerase ribozyme fitness (log ratio)": -4.06},
      {"variant": "A52G C93U C96U G136C A138G U146A", "polymerase ribozyme fitness (log ratio)": "≤ -4.2"},
      {"variant": "A52U U53G U61A A91G U130G U144G", "polymerase ribozyme fitness (log ratio)": "≤ -4.2"},
      {"variant": "U53A U55G G65C C85G C87U C103U C131A", "polymerase ribozyme fitness (log ratio)": "≤ -4.2"},
      {"variant": "A52U G86U U104C", "polymerase ribozyme fitness (log ratio)": -3.56},
      {"variant": "A52G G71U", "polymerase ribozyme fitness (log ratio)": -2.58},
      {"variant": "U53C C57G C125U G143A", "polymerase ribozyme fitness (log ratio)": -3.67},
      {"variant": "U53C C93G C99G C118A G126A U146G", "polymerase ribozyme fitness (log ratio)": "≤ -4.2"},
      {"variant": "U53A G58A G80A G81A C87U", "polymerase ribozyme fitness (log ratio)": -2.31},
      {"variant": "U53A C93A C99U G141U", "polymerase ribozyme fitness (log ratio)": "≤ -4.2"},
      {"variant": "U53A C72U A97G U134A", "polymerase ribozyme fitness (log ratio)": -3.33},
      {"variant": "A52U G59A A98G", "polymerase ribozyme fitness (log ratio)": -1.21},
      {"variant": "A52U C57U G83C", "polymerase ribozyme fitness (log ratio)": -3.29},
      {"variant": "U53A G94A C125A U139C A142C", "polymerase ribozyme fitness (log ratio)": "≤ -4.2"},
      {"variant": "U53C C69U C75A C93U A115C", "polymerase ribozyme fitness (log ratio)": "≤ -4.2"},
      {"variant": "A52U G83A C118U A121C", "polymerase ribozyme fitness (log ratio)": -2.33},
      {"variant": "U53A U144C U145G", "polymerase ribozyme fitness (log ratio)": -1.92},
      {"variant": "U53A G58A G71A G126A U135G", "polymerase ribozyme fitness (log ratio)": "≤ -4.2"},
      {"variant": "U53A G86A", "polymerase ribozyme fitness (log ratio)": -2.07},
      {"variant": "A52U C54A G70A A89G G92C A119C G126A G141A", "polymerase ribozyme fitness (log ratio)": "≤ -4.2"},
      {"variant": "A52G U61G A73G", "polymerase ribozyme fitness (log ratio)": -2.84},
      {"variant": "A52G G88U", "polymerase ribozyme fitness (log ratio)": "≤ -4.2"},
      {"variant": "U53A G92U C103A", "polymerase ribozyme fitness (log ratio)": -2.78},
      {"variant": "U53A A89C G94A G141C", "polymerase ribozyme fitness (log ratio)": -3.63},
      {"variant": "A52G U53A C54U C93G G112U", "polymerase ribozyme fitness (log ratio)": "≤ -4.2"},
      {"variant": "U53A G70A C99A G124C", "polymerase ribozyme fitness (log ratio)": "≤ -4.2"},
      {"variant": "U53A C96U C103U", "polymerase ribozyme fitness (log ratio)": -1.14},
      {"variant": "U53A G80A U109A C123U A142G", "polymerase ribozyme fitness (log ratio)": -3.11},
      {"variant": "U53A U56A G152A", "polymerase ribozyme fitness (log ratio)": -4},
      {"variant": "A52G G86A", "polymerase ribozyme fitness (log ratio)": -0.796},
      {"variant": "U53A A107U", "polymerase ribozyme fitness (log ratio)": -2.93},
      {"variant": "A52G G70C U78G C93G G141C", "polymerase ribozyme fitness (log ratio)": "≤ -4.2"},
      {"variant": "A52G U101G", "polymerase ribozyme fitness (log ratio)": -0.16},
      {"variant": "U53A U135A", "polymerase ribozyme fitness (log ratio)": -1.55},
      {"variant": "U53C A64G U90C G117C", "polymerase ribozyme fitness (log ratio)": "≤ -4.2"},
      {"variant": "A52G C57A G94U G117U A121C C131G", "polymerase ribozyme fitness (log ratio)": "≤ -4.2"},
      {"variant": "A52G U53A C57A A73U C87G C93A C132U A150C", "polymerase ribozyme fitness (log ratio)": "≤ -4.2"},
      {"variant": "U53A C96A C129G", "polymerase ribozyme fitness (log ratio)": -3.82},
      {"variant": "A52U U53A C57A G86A", "polymerase ribozyme fitness (log ratio)": -1.31},
      {"variant": "A52G G84A C116G", "polymerase ribozyme fitness (log ratio)": -2.02},
      {"variant": "A52U C57A C95A A97U", "polymerase ribozyme fitness (log ratio)": -2.33},
      {"variant": "A52U U139G U144C", "polymerase ribozyme fitness (log ratio)": -1.12},
      {"variant": "A52G C87U C93U C131A G136A G143C U145G U146G", "polymerase ribozyme fitness (log ratio)": "≤ -4.2"},
      {"variant": "U53A A66C A89G G94C C99G", "polymerase ribozyme fitness (log ratio)": -3.94},
      {"variant": "A52G G58C C79U A98U U101G C108A", "polymerase ribozyme fitness (log ratio)": "≤ -4.2"},
      {"variant": "U53A U56A G70U C93U G141C", "polymerase ribozyme fitness (log ratio)": "≤ -4.2"},
      {"variant": "A52G C63U C93U", "polymerase ribozyme fitness (log ratio)": -1.7},
      {"variant": "A52G G68U C99G", "polymerase ribozyme fitness (log ratio)": "≤ -4.2"},
      {"variant": "A52U C125U", "polymerase ribozyme fitness (log ratio)": -1.42},
      {"variant": "A52U A73U A89C G92C C129G A137U", "polymerase ribozyme fitness (log ratio)": "≤ -4.2"},
      {"variant": "A52G G67U A142G", "polymerase ribozyme fitness (log ratio)": -3.52},
      {"variant": "U53A C57U A97G", "polymerase ribozyme fitness (log ratio)": -1.24},
      {"variant": "A52G C63U C93U U145G C149U", "polymerase ribozyme fitness (log ratio)": -4.11},
      {"variant": "U53G A60G C87A", "polymerase ribozyme fitness (log ratio)": "≤ -4.2"},
      {"variant": "A52G U56G G83A", "polymerase ribozyme fitness (log ratio)": -2.85},
      {"variant": "U53A G59A G84U", "polymerase ribozyme fitness (log ratio)": -1.32},
      {"variant": "U53A U78C U90G C96G", "polymerase ribozyme fitness (log ratio)": "≤ -4.2"},
      {"variant": "A52U G80A", "polymerase ribozyme fitness (log ratio)": -3.35},
      {"variant": "U53A C54A A147C", "polymerase ribozyme fitness (log ratio)": -2.75},
      {"variant": "U53A U56A G58A C85U", "polymerase ribozyme fitness (log ratio)": 0.824},
      {"variant": "U53A G141U", "polymerase ribozyme fitness (log ratio)": 0.504},
      {"variant": "A52U C69U G83C C116G", "polymerase ribozyme fitness (log ratio)": -4.13},
      {"variant": "U53A G83C C95U A97C G100A C116G", "polymerase ribozyme fitness (log ratio)": "≤ -4.2"},
      {"variant": "U53A C54A G58A C85U", "polymerase ribozyme fitness (log ratio)": -0.519},
      {"variant": "U53A C76G", "polymerase ribozyme fitness (log ratio)": "≤ -4.2"},
      {"variant": "U53A C76A", "polymerase ribozyme fitness (log ratio)": -2.19},
      {"variant": "U53A C93A U101C C125U C132U G140U A147C", "polymerase ribozyme fitness (log ratio)": "≤ -4.2"},
      {"variant": "U53A A110C", "polymerase ribozyme fitness (log ratio)": "≤ -4.2"},
      {"variant": "U53A A97C A113G", "polymerase ribozyme fitness (log ratio)": -3.54},
      {"variant": "A52G C76U C85G C123A U144G", "polymerase ribozyme fitness (log ratio)": -0.879},
      {"variant": "A52U A66G C87G A97G", "polymerase ribozyme fitness (log ratio)": "≤ -4.2"},
      {"variant": "A52G C108U", "polymerase ribozyme fitness (log ratio)": -2.1},
      {"variant": "U53A G68U C76G U130A C132U G136A A142U", "polymerase ribozyme fitness (log ratio)": "≤ -4.2"},
      {"variant": "U53A G143C", "polymerase ribozyme fitness (log ratio)": -2.05},
      {"variant": "A52G C93U C116U", "polymerase ribozyme fitness (log ratio)": -1.48},
      {"variant": "U53A A60U C63U C75U U77G C93G A122G C149G U151A", "polymerase ribozyme fitness (log ratio)": "≤ -4.2"},
      {"variant": "A52U C75U A147U", "polymerase ribozyme fitness (log ratio)": -2.82}
    ]}
  ]
}
